This is an account of results in patent US20140228540A1, “POLYPEPTIDES THAT BIND TISSUE INHIBITOR OF METALLOPROTEINASE TYPE THREE (TIMP-3), COMPOSITIONS AND METHODS” (Amgen Inc., priority 2009, published 2014).

Experiment [1] deals with HTB-94 cells. The experiment in a line: Accumulation of TIMP-3 in the medium of cultured HTB-94 cells. The experiment is classed as cell-based. How it is done:
This example describes an assay to evaluate the accumulation of TIMP-3 in the medium of cultured cells. HTB-94™ cells (a chondrocytic cell line available from the American Type Culture Collection, Manassas, Va.) are plated to 24-well tissue culture plates at 1×10̂5 cells per well in 1 ml growth medium (RPM11640, 10% FBS, 1% PSG), and incubated at 37 C, 5% CO2 overnight. The cells are then washed once with PBS, and the wells are replenished with 250 microL serum-free medium (RPM11640, 1% PSG; designated SF in the tables below) to which is added the polypeptide being tested or a control (for example medium containing heparin, 1 mg/ml). Proteins to be tested are diluted to appropriate concentrations, for example as shown in the Tables below, and added to the cells. Cells are then incubated at 37 C, 5% CO2 for two additional days, day 2 conditioned medium (CM) samples are collected and clarified by centrifugation (i.e., for 5 minutes at 10K RPM) and the supernatant fluid is collected and stored at −20 C until assayed. Analysis is done on 100 microL CM samples, either by Western blot or by using a standard human TIMP-3 ELISA as per the manufacturer's protocol (R&D Systems Inc., Minneapolis, Minn.).

The target in experiment [2] is T1, inhibition of MMP-13 by TIMP-3 (Homo sapiens, UniProt P35625).
T1 construct: purchased Calbiochem/EMD (active MMP-13)
T1 sequence (P35625 24-211): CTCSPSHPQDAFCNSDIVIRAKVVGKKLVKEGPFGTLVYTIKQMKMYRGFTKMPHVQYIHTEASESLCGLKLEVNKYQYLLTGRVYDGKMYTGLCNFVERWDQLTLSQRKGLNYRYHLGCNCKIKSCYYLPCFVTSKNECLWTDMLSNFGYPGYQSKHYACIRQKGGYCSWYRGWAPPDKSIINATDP
The experiment in a line: MMP-13 inhibition assay: effect of test molecules on inhibition of MMP-13 by TIMP-3. The experiment is classed as biochemical.
Method: Briefly, test molecules are titrated in assay buffer and added to black polystyrene 96 or 384 well assay plate (Griener Bio-One, Germany). The concentrations of the test molecules are dependant on the activity of the molecule; for example, titrations may begin at 1000, 2000 or 3000 nM and use five-fold dilutions for titration, although other types of titrations may be used or a single concentration may be tested. […] Active MMP-13 (Calbiochem/EMD,) is diluted in assay buffer to give a final assay concentration of 1.46 nM added to the test molecule titration/TIMP-3 mixture and incubated for 10 minutes at room temperature in a final volume of 50 microL. Alternatively, pro-MMP-13 (R & D Systems, Minneapolis, Minn.) is activated with aminophenyl mercuric acetate (APMA; Calbiochem/EMD,) for 2 hours at 37 degrees C., and used in the assay.
A fluorogenic substrate such as Mca-PLGL-Dpa-AR-NH2 Fluorogenic MMP Substrate or Mca-KPLGL-Dpa-AR-NH2 Fluorogenic Peptide Substrate (R & D Systems) is prepared to a final assay concentration of 20 microM in assay buffer, and added to the MMP-13 enzyme/huTIMP-3/test molecule solution. MMP-13 activity is measured kinetically for 20 minutes using Molecular Devices fluorescent plate reader. The effect of the molecules being tested is expressed as percent of expected maximum TIMP-3 inhibition of MMP-13 enzymatic activity.

Experiment [3] deals with TIMP-3. Briefly: Binding ELISA of LRP-1 peptides to TIMP-3 (Table 2; format and species not specified). Further details: species or system human or mouse. A general note: An ELISA detects its analyte on a solid surface through an enzyme-linked reagent.
In experiment [4] the test system is cartilage-explants. Particulars: addition of the protein to explants; cited from earlier work.
Experiment [5] addresses MMP-13 (Homo sapiens, UniProt P45452). The experiment in a line: TIMP-3 inhibition of MMP-13 (TIMP-3 alone). The experiment is classed as biochemical. The note with it: TIMP-3 at 0.25 nM, 1.5 nM MMP-13, absence of any antibody. From the text: This Example described MMP-13 Inhibition Assays useful for measuring the effect(s) of TIMP-3 binding proteins (also referred to as test molecules, including LRP-1 peptides and antibodies to TIMP-3) on the ability of TIMP-3 to inhibit MMP-13. First, a titration of TIMP-3 inhibition of MMP-13 is run to empirically determine the IC50 of TIMP-3. […] Briefly, test molecules are titrated in assay buffer and added to black polystyrene 96 or 384 well assay plate (Griener Bio-One, Germany). […] Then recombinant TIMP-3 is diluted in assay buffer (20 mM Tris, 10 mM CaCl2, 10 uM ZnCl2, 0.01% Brij 35 (Calbiochem/EMD, San Diego, Calif.), pH 7.5) to a previously determined concentration (for example, TIMP-3's IC70 with 3 nM being a typical concentration), added to the test molecules and rotated for 10 minutes at room temperature. […]
None of the 22 antibodies evaluated adversely affected the ability of TIMP-3 to inhibit MMP-13, nor did they have an effect upon MMP-13 itself. In the TIMP-3 accumulation assay, the antibodies were evaluated for reproducible, titratable increase in the accumulation of TIMP-3 in supernatant fluid at levels of at least about 1.5 times higher than that observed with a negative control antibody. […]

The subject of experiment [6] is rat medial meniscal tear model of osteoarthritis. The note with it: intra-articular injection; cited from earlier work.

B1: Cluster II: LRP-1 peptide, amino acids 854-1184 of LRP-1; contains 8 ligand binding domains (protein)
chain: CQPGEFACANSRCIQERWKCDGDNDCLDNSDEAPALCHQHTCPSDRFKCENNRCIPNRWLCDGDNDCGNSEDESNATCSARTCPPNQFSCASGRCIPISWTCDLDDDCGDRSDESASCAYPTCFPLTQFTCNNGRCININWRCDNDNDCGDNSDEAGCSHSCSSTQFKCNSGRCIPEHWTCDGDNDCGDYSDETHANCTNQATRPPGGCHTDEFQCRLDGLCIPLRWRCDGDTDCMDSSDEKSCEGVTHVCDPSVKFGCKDSARCISKAWVCDGDNDCEDNSDEENCESLACRPPSHPCANNTSVCLPPDKLCDGNDDCGDGSDEGELCDQ
On to B1, for which the “TIMP-3 (ng/ml) in conditioned medium” value is 1.99 ng/mL in experiment [1] (Table 5, polypeptide 0.5 microM, listed as C II (prep 1)); 1.35 ng/mL in experiment [1] (Table 5, polypeptide 0.5 microM, listed as C II (prep 2)); 2.23 ng/mL in experiment [1] (Table 5, polypeptide 1 microM, listed as C II (prep 1)); 1.71 ng/mL in experiment [1] (Table 5, polypeptide 1 microM, listed as C II (prep 2)); 5.18 ng/mL in experiment [1] (Table 5, polypeptide 2 microM, listed as C II (prep 1)); 1.92 ng/mL in experiment [1] (Table 5, polypeptide 2 microM, listed as C II (prep 2)). The “TIMP-3 (ng/ml) in conditioned medium” value in experiment [1] (Table 6, peptides 2 microM) turned out to be 8.49 ng/mL; in experiment [1] (Table 7, peptides 2 microM), 13.42 ng/mL; in experiment [1] (Table 8, polypeptide 0.5 microM) it was 1.59 ng/mL; in experiment [1] (Table 8, polypeptide 1 microM) it was 1.94 ng/mL; in experiment [1] (Table 8, polypeptide 2 microM), 2.76 ng/mL. For the same molecule, in experiment [1] (Western blot), the “Accumulation of TIMP-3 in conditioned medium by Western blot” value is “enhanced accumulation of TIMP-3”. Moreover, the “Effect on TIMP-3's inhibition of MMP-13 (in words)” value in experiment [2] was “minimal effect”. Besides, in experiment [3], the “Binding to TIMP-3 (affinity, in words)” value is recorded as “submicromolar affinity”.

B2: TIMP-3: tissue inhibitor of metalloproteinase 3, recombinant (protein, UniProt P35625 24-211, looked up)
Metalloproteinase inhibitor 3: CTCSPSHPQDAFCNSDIVIRAKVVGKKLVKEGPFGTLVYTIKQMKMYRGFTKMPHVQYIHTEASESLCGLKLEVNKYQYLLTGRVYDGKMYTGLCNFVERWDQLTLSQRKGLNYRYHLGCNCKIKSCYYLPCFVTSKNECLWTDMLSNFGYPGYQSKHYACIRQKGGYCSWYRGWAPPDKSIINATDP
Regarding B2, the “cytokine-induced degradation of cartilage-explants” value in experiment [4] is listed as “prevents cytokine-induced degradation”. In addition, the “inhibition of MMP-13 activity” value in experiment [5] is on record as 54%. Also, the cartilage damage result in experiment [6] is “reduces cartilage damage”.
